# Measurements taken from patent US10781452B2, “FLT3 receptor antagonists for the treatment or the prevention of pain disorders” (INSTITUT NATIONAL DE LA SANTE ET DE LA RECHERCHE MEDICALE …, priority 2010, dated 2020).
# T1: ECD of human recombinant FLT3 (Fc-ECDhFLT3) (Homo sapiens, UniProt P36888)
# T1 construct: ECD of human or mouse recombinant FLT3 produced in NSO cell line; host or cells: NSO cell line
# T1 sequence (P36888 27-543 limits assumed): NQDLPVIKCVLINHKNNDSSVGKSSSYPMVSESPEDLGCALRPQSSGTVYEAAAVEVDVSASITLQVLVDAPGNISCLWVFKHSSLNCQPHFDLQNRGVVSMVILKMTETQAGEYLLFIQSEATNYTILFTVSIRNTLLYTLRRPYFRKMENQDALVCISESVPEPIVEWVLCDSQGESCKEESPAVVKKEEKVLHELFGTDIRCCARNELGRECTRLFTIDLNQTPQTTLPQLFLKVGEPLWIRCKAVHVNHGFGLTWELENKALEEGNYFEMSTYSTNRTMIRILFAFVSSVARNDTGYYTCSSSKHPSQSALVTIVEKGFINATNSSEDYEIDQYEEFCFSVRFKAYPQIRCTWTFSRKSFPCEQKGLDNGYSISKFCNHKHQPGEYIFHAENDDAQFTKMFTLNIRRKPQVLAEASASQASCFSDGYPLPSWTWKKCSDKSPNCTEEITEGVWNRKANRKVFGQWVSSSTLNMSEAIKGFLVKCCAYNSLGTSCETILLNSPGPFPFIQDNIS
# T2: FLT3 (Mus musculus, UniProt Q00342)
# T2 construct: from tissue; host or cells: living mice (sensory neurons / DRG)
# T2 sequence (Q00342 28-1000): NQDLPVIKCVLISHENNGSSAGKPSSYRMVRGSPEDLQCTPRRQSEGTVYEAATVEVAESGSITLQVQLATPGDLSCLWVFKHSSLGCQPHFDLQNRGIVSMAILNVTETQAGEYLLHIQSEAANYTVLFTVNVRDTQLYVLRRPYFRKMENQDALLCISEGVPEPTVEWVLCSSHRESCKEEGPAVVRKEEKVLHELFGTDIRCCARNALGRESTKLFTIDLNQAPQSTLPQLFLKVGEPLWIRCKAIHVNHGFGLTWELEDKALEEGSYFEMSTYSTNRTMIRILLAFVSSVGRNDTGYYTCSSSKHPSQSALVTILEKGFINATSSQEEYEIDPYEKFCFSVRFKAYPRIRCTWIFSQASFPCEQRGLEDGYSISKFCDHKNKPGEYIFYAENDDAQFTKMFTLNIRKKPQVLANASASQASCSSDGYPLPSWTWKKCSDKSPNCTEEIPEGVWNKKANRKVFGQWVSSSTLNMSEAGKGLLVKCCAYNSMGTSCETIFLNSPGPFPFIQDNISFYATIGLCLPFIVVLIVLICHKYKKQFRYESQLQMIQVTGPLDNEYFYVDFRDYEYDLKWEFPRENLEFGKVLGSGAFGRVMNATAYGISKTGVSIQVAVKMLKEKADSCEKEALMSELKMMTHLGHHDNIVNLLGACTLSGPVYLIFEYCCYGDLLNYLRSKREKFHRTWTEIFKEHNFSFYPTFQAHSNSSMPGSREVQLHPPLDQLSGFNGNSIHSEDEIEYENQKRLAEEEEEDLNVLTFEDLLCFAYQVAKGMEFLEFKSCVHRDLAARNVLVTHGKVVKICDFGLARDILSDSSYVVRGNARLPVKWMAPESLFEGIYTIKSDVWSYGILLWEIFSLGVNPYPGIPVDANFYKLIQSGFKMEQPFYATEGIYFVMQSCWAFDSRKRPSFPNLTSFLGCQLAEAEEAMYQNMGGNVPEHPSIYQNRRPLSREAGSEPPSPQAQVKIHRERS
# Columns and labels:
# [1] = target: T1, ECD of human recombinant FLT3 (Fc-ECDhFLT3); assay: ELISA binding to ECD of human recombinant FLT3; conditions: antibody at 10 μg/mL
# Method: The A3 antibody directed against FLT3 was produced by a phage display strategy and the antibody selection was performed by using ECD of human or mouse recombinant FLT3 produced in NSO cell line. To identify antibodies cross-reacting with both human and mouse FLT3, phages were selected by three rounds of panning, according to methods well known in the art (Philibert, P. et al. A focused antibody library for selecting scFvs expressed at high levels in the cytoplasm. BMC Biotechnol. 7, 81; 2007), first against the ECD of human FLT3, then against the ECD of mouse FLT3 and then against the ECD of human FLT3. A batch of one selected antibody named A3 was tested for its ability to bind to the ECD of human or mouse recombinant FLT3 using an ELISA technique.
# FLT3 = target: T2, FLT3; assay: Chronic Constriction Injury (CCI) mouse model, mechanical hypersensitivity (0.6 g von Frey filament); format: in vivo
# Method: The efficacy of the antibody A3 to reverse neuropathic pain was assessed in the Chronic Constriction Injury (CCI) mouse model of persistent peripheral neuropathic pain, consisting in three chronic ligatures tied loosely around the sciatic nerve (Bennett, G. J. & Xie, Y. K. A peripheral mononeuropathy in rat that produces disorders of pain sensation like those seen in man. Pain, 1988, 33:87-107). Neuropathic pain symptoms, such as mechanical hypersensitivity, develop within 10 days post-injury.
# CCI model. The Chronic Constriction Injury (CCI) model was adapted for mice (Costa, B., Comelli, F., Bettoni, I., Colleoni, M. & Giagnoni, G. The endogenous fatty acid amide, palmitoylethanolamide, has anti-allodynic and anti-hyperalgesic effects in a murine model of neuropathic pain: involvement of CB(1), TRPV1 and PPARgamma receptors and neurotrophic factors. Pain, 2008, 139:541-550). Briefly, skin was incised and the sciatic nerve was exposed unilaterally at the […] by dissecting through the biceps femoris. […]
# Mechanical nociception assay. […] The procedure was applied 10 times and the percentage of positive responses was calculated.
# Data and statistical analyses. Data are expressed as the mean ±S.E.M. Statistical significance was determined by two-way analysis of variance (ANOVA) for repeated measures, over time. […]
molecule,measurement,setting,value
"A3 antibody: human monoclonal antibody against FLT3; VH SEQ ID NO:1, VL SEQ ID NO:2 (antibody, V domains shown, Synthetic VH domain of A3; Synthetic VL region of A3) VH: EVQLVESGGSLVKPGGSLRLSCAASGFTFSNSYMNWVRQAPGKGLEWISDISGSSRDIDYADFVKGRFTISRDNATNSLYLQMNSLRAEDTAVYYCVRSGNSGMDVWGRGTLVTVSS VL: QSVLTQPASVSGSPGQSITISCAGTSSDVGGGYYVSWYQQHPGKAPKLMIYYDSYRPSGVSNRFSGSKSGNTASLTISGLQAEDEADYYCSSYTNNSTRVFGGGTKLEIK",ELISA immunoreactivity against Fc-ECDhFLT3,[1],generates immunoreactivity
same,mechanical sensitivity (percentage of withdrawal) after CCI injury,"FLT3; 100 μg/animal intraperitoneal, 9 days after CCI, vs control irrelevant antibody",completely reduce mechanical sensitivity to the scores obtained before CCI injury
same,duration of inhibition of CCI-induced pain hypersensitivity,"FLT3; single injection, 100 μg/animal",48 h
